Among the data in US20210130420A1, “RECOMBINANT BINDING PROTEINS TARGETING HER2 AND SERUM ALBUMIN, AND THEIR USES” (Molecular Partners AG, priority 2016, published 2021) are terminal half-life values, retold here.

This data set can be described thus: Pharmacokinetic analysis in cynomolgus monkey. The format is in vivo. Particulars: 1 mg/kg, intravenous infusion. The protocol: The measurements shown in this example are the result of a half-life engineering effort as described in Example 11. Protein #21-His, Protein #23-His, and Protein #24-His were expressed and purified as described in Example 1. The pharmacokinetic properties of the proteins were assessed in cynomolgus monkey. Proteins were administered via intravenous infusion for 30 min at a target dose level of between 1 mg/kg to cynomolgus monkeys. Blood samples were collected pre-dose and again at selected time points, for example 5 min, 10 min, 0.5 hours, 1 hour, 2 hours, 4 hours, 8 hours, 12 hours, 24 hours, 48 hours, 72 hours, 96 hours, 120 hours, 144 hours, 168 hours, 192 hours, 216 hours, and 240 hours post-end of infusion (i.e. post-injection). The blood samples were allowed to stand at room temperature and were centrifuged to generate serum, followed by storage at −80° C. pending analyses. Pharmacokinetic parameters were determined using procedures well known to the person skilled in the art. Serum concentrations of proteins were determined by sandwich ELISA using a rabbit monoclonal anti-designed ankyrin repeat domain antibody as capture reagent and murine monoclonal anti-designed ankyrin repeat domain antibody as detection reagent, and using a standard curve. Pharmacokinetic parameters were determined using standard software such as Phoenix WinNonLin (Certara, Princeton, USA) or Graph Pad Prism (GraphPad Software, La Jolla, USA) and standard analyses such as non-compartmental analyses. […] Target mediated clearance is well-known to the person skilled in the art and is known from e.g. antibodies targeting HER2.
Similarly, Protein #21-His was expressed and purified as described in Example 1. The pharmacokinetic properties of the proteins were assessed in cynomolgus monkey as described above at 1 mg/kg, 5 mg/kg and 10 mg/kg.
Similar results are observed when testing Protein #21 (expressed and purified as described in Example 1). The pharmacokinetic properties of the proteins are assessed in cynomolgus monkey as described above at 1 mg/kg, 10 mg/kg and 100 mg/kg. Pharmacokinetic parameters are evaluated as described above.
For the studies in this example Protein #21-His, Protein #24-His, Protein #28-His, Protein #29-His, and Protein #30-His were prepared according to Example 1. Protein #28-His was additionally PEGylated using a 40 kDa PEG moiety (NOF Sunbright GL2-400MA) by maleimid coupling of the PEG-moiety onto the free C-terminal cysteine of Protein #28-His, followed by purification to homogeneity using standard purification methods, procedures well known to the person skilled in the art. Pharmacokinetic analyses in mouse or cynomolgus monkey were performed as described in Examples 8 and 9.

B1: Protein #24-His: SEQ ID NO: 24 with a His-tag (SEQ ID NO: 1) fused to its N terminus (protein)
chain: MRGSHHHHHHGSDLGKKLLEAARAGQDDEVRELLKAGADVNAKDYFSHTPLHLAARNGHLKIVEVLLKAGADVNAKDFAGKTPLHLAANEGHLEIVEVLLKAGADVNAQDIFGKTPADIAADAGHEDIAEVLQKAAGSPTPTPTTPTPTPTTPTPTPTGSDLGKKLLEAARAGQDDEVRELLKAGADVNAKDYFSHTPLHLAARNGHLKIVEVLLKAGADVNAKDFAGKTPLHLAANEGHLEIVEVLLKAGADVNAQDIFGKTPADIAADAGHEDIAEVLQKAAGSPTPTPTTPTPTPTTPTPTPTGSDLGIKLLFAAAKGQDDEVRELLKAGADVNAKDFQGVTPLHIAAQSGHLEIVEVLLKAGADVNAKDVTGDTPLHLAAQHGHLEIVEVLLKAGADVNAQDERGWTPADLAADWGHEDIAEVLQKAAGSPTPTPTTPTPTPTTPTPTPTGSDLGKKLLEAARAGQDDEVRELLKAGADVNAKDEYGLTPLYLATAHGHLEIVEVLLKAGADVNAVDAIGFTPLHLAAFIGHLEIAEVLLKAGADVNAQDKFGKTPADIAAGAGNEDIAEVLQKAA
modifications: His-tag; Protein comprising four designed ankyrin repeat domains
In the case of B1, the terminal half-life was 45 h.
